Measurements: patent US20140221281A1 (Sanofi, published 2014)
Where no end group is shown, it is not given here.

Legend:
human GLP-1 receptor = human GLP-1 receptor (human, UniProt P43220 24-463); assay: cell-based or functional assay
human GIP receptor = molecular target: T1, human GIP receptor (human, UniProt P48546 22-466); assay: cell-based or functional assay
T1 sequence (looked up): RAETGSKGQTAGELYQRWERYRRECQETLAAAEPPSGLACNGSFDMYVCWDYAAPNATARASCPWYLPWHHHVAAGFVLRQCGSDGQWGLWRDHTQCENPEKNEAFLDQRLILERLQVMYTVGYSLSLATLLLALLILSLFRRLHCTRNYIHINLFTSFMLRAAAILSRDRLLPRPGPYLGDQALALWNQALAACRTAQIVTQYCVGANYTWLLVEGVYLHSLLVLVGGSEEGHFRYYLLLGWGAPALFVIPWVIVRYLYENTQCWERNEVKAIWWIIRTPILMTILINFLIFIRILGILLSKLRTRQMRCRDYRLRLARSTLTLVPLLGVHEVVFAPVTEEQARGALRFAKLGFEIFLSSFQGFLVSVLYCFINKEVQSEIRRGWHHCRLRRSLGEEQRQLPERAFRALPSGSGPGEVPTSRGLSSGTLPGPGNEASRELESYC

Chain of human GLP-1 receptor (P43220 24-463): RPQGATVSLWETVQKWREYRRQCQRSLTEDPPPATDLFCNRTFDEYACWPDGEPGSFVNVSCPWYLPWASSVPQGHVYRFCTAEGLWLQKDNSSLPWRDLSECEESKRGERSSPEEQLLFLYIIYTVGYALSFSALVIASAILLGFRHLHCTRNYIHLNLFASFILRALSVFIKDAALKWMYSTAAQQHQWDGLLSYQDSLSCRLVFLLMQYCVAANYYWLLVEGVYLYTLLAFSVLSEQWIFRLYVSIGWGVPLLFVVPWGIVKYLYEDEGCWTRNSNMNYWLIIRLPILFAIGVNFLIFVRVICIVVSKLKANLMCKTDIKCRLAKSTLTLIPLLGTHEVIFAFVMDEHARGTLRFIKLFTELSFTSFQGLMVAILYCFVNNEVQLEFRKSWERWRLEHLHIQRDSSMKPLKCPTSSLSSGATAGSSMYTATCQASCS

B1: Tyr(1)Ile(12)-GLP1 (peptide)
peptide: YAEGTFTSDVSIYLEGQAAKEFIAWLVKGR-NH2
EC50 hGLP-1 R [pM] (cAMP formation) (human GLP-1 receptor): 5 pM | EC50 hGIP R [pM] (cAMP formation) (human GIP receptor): 3660 pM
